The values that follow come from patent US20030054493A1.

In assay [1] the target is Crotalus durissus terrificus (C.d.t.) venom. As to the kind of experiment: ELISA, venom-coated wells; dilution 1:25. A general note: In an ELISA, binding on a coated surface is turned into a signal by an enzyme label.
Assay [2] has the same target. As to the kind of experiment: ELISA, venom-coated wells; dilution 1:125.
Assay [3] has the same target. Nature of the assay: ELISA, venom-coated wells; dilution 1:625.
The target is the same in assay [4]. Nature of the assay: ELISA, venom-coated wells; dilution 1:3125.
Assay [5] shares this target. As to the kind of experiment: ELISA, venom-coated wells; dilution 1:62,500.
For assay [6] the target is unchanged. Nature of the assay: ELISA, venom-coated wells; dilution 1:312,500.
The target is the same in assay [7]. As to the kind of experiment: ELISA, venom-coated wells (5 µg/ml); undiluted.
For assay [8] the target is unchanged. Nature of the assay: ELISA, venom-coated wells; dilution printed 1.5.
Assay [9] has the same target. Nature of the assay: ELISA, venom-coated wells (5 µg/ml); dilution 1:5.
Assay [10] has the same target. Nature of the assay: ELISA, venom-coated wells (5 µg/ml); dilution 1:25.
Assay [11] shares this target. As to the kind of experiment: ELISA, venom-coated wells (5 µg/ml); dilution 1:125.
For assay [12] the target is unchanged. As to the kind of experiment: ELISA, venom-coated wells (5 µg/ml); dilution 1:625.
For assay [13] the target is unchanged. Nature of the assay: ELISA, venom-coated wells (5 µg/ml); dilution 1:3125.

Take preimmune IgY (antibody): the ELISA absorbance was 0.016 absorbance in assay [1]; below 0 absorbance in [2]; below 0 absorbance in [3]; below 0 absorbance in assay [4]; 0.003 absorbance in assay [7]; below 0 absorbance in assay [8]. Also, the ELISA absorbance was below 0 absorbance in [9]; 0 absorbance in assay [10]; 0.003 absorbance in assay [11]; 0 absorbance in assay [12]; 0.002 absorbance in assay [13]. In addition, the ELISA absorbance (absorbance (412 nm filter)) in [5] was 0.001; in assay [6], 0.01.
